Measured values reported in patent publication US7740850B2, “PDGFRβ-specific antibodies” (ImClone, LLC, priority 2007, dated 2010).

B1: 1B3: human anti-mouse PDGFRβ antibody from Fab phage display library, human κ/γ1 constant regions; SEQ ID NOS in Table 1 (antibody, listed as Homo sapiens, V domains shown)
VH: QVQLQESGGGLVKPGGSLRLSCAASGFTFSSYSMNWVRQAPGKGLEWVSSISSSSSYIYYADSVKGRFTISRDNSKNTLYLQMNSLRAEDTAVYYCAKGGRPLLVFDFWGQGTLVTVS
VL: EIVMTQSPGTLSLSPGERATLSCRASQSVSSSYLAWYQQKPGQAPRLLIYDASKRATGIPARFSGSGSGTDFTLTISTLESEDSAVYYCQQRGYWPPITFGQGTRLEIKR
modifications: human kappa/gamma1 constant regions
B2: 2C5: PDGFRβ-specific human antibody binding both human and murine PDGFRβ; SEQ ID NOS in Table 1 (antibody, listed as Homo sapiens, V domains shown)
VH: QVQLVQSGAEVKKPGSSVKVSCKASGGTFSSYAISWVRQAPGQGLEWMGRIIPILGIANYAQKFQGRVTITADKSTSTAYMELSSLRSEDTAVYYCARDMGSRNYYYFYWGQGTLVTVSS
VL: EIVLTQSPATLSLSPGERATLSCRASQSVGRYLAWYQQKPGQAPRLLIYGASNRATGIPARFSGSGSGTDFTLTISSLEPEDFAVYYCQQRSNWPLTFGGGTKVEIK

Columns and labels:
[1] = tested on: SK-OV-3 ovarian carcinoma xenograft; assay: Subcutaneous tumor xenograft model; assay type: in vivo, mouse
Protocol: Six xenograft models, SK-OV-3, OV-CAR-8, BxPC-3, OV-CAR-5, Caki-1 and NCI-H460 (A to F, respectively) were used to examine the effects of 1B3 on xenograft tumors in athymic nude mice. Mice with established tumors (˜250-300 mm^3) were randomly grouped and treated with 1B3, normal human IgG, or saline by intraperitoneal injection twice weekly (except for BxPC-3 model where the mice were treated three times a week) at the dose indicated. Tumor volumes were measured twice a week and are presented as mean±SEM. *1 indicates the loss of one mouse due to severe illness. 1B3 binds to mouse, but not human, PDGFRβ. Accordingly, the observed responses to treatment result from inhibition of stimulation of host cells.
Antitumor activity of anti-mPDGFRβ antibody in tumor xenograft models. Six human xenograft tumor models, including three ovarian carcinoma (SK-OV-3, OV-CAR-5 and OV-CAR-8), one pancreatic carcinoma (BxPC3), one lung carcinoma (NCI-H460), and one kidney carcinoma (Caki-1), were used to assess the antitumor activity of 1B3 in vivo. […] Tumor sizes and mouse body weight were measured twice a week. Tumor volume was calculated using the formula: π/6×(length×width^2), where length=longest diameter and width=diameter perpendicular to length. The ratio of average tumor volume in the treatment group versus that in the control group (T/C %) was calculated. […]

PDGFRβ in NIH/3T3 cells = target: T1, PDGFRβ in NIH/3T3 cells (Mus musculus, UniProt P05622); assay: PDGF-BB-stimulated receptor phosphorylation (Western blot); assay type: cell-based
T1 construct: Receptor phosphorylation was determined for NIH/3T3 and D122 cells; endogenous in cells; host or cells: NIH/3T3
T1 sequence (P05622 32-1098): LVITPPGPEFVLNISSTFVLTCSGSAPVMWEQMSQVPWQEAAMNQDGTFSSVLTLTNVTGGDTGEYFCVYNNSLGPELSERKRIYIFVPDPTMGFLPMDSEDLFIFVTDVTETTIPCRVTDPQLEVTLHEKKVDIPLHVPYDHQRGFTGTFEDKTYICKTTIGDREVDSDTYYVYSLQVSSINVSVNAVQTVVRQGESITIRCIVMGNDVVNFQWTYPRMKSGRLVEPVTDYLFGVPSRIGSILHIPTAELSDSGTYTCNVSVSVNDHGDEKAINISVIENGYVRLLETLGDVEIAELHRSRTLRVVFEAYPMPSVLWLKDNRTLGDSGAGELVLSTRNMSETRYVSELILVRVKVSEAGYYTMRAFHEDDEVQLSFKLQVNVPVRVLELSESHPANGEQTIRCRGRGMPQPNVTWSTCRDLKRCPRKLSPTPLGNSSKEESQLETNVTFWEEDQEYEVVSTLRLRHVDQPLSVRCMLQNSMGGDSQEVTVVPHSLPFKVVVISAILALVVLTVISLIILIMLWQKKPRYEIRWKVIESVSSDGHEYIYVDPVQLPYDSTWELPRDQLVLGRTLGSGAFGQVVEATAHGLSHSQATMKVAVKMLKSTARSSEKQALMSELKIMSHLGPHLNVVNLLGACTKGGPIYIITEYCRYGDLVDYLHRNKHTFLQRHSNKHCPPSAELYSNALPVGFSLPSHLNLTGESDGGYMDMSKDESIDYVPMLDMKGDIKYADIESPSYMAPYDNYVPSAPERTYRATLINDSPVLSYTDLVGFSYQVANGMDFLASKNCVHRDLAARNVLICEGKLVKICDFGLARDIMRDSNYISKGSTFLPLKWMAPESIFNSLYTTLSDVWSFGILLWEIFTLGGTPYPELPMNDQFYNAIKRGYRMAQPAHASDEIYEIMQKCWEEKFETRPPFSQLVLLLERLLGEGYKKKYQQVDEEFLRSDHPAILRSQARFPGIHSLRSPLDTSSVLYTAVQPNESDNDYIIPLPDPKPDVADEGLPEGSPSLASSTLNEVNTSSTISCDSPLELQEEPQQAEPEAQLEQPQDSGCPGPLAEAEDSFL
Protocol: (§1) Receptor phosphorylation was determined for NIH/3T3 and D122 cells. The cells were plated onto 6 cm dishes and grown to 70-80% confluence, after which the cells were washed twice in PBS and cultured overnight in serum free medium. […] The cells were lysed in lysis buffer (50 mM Tris-HCl, pH 7.4, 150 mM NaCl, 1% TritonX-100, 1 mM EDTA, 1 mM phenylmethylsulfonyl fluoride, 0.5 mM Na3VO4 1 μg/ml leupeptin, 1 μg/ml pepstatin, and 1 μg/ml aprotinin) for 1 h, followed by centrifugation of the lysate at 12,000 rpm for 10 min at 4° C. The receptors were immunoprecipitated from the cell lysate supernatant by an anti-mPDGFRβ antibody (R&D Systems Inc), followed by the addition of 20 μl of ProA/G-sepharose beads. The precipitated receptor proteins were resolved on a 4-12% NuPAGE Bis-Tris gel and transferred to a polyvinylidene difluoride membrane. Phospho-mPDGFRβ protein was detected on the blot using an anti-phospho-tyrosine antibody-HRP conjugate (Santa Cruz Biotech, Santa Cruz, Calif.). Total receptor proteins loaded on the gel were assayed with an antibody to mPDGFRβ.

PDGFRβ in D122 cells = target: T2, PDGFRβ in D122 cells (Mus musculus, UniProt P05622); assay: as above; assay type: cell-based
T2 construct: endogenous in cells; host or cells: D122
T2 sequence (P05622 32-1098): as above
Protocol: as §1

human xenograft tumors = assay: Human tumor xenograft models in athymic nude mice (statements over several models); assay type: in vivo; settings: all six xenograft models, i.p. up to 60 mg/kg
Protocol: Antitumor activity of anti-mPDGFRβ antibody in tumor xenograft models. Six human xenograft tumor models, including three ovarian carcinoma (SK-OV-3, OV-CAR-5 and OV-CAR-8), one pancreatic carcinoma (BxPC3), one lung carcinoma (NCI-H460), and one kidney carcinoma (Caki-1), were used to assess the antitumor activity of 1B3 in vivo. Athymic (nu/nu) mice (female, 7-8 weeks of age) were housed for 7-10 days before xenograft implantation. Each mouse was injected subcutaneously with 3-10×10^6 cells of SK-OV-3, OVCAR-5, OVCAR-8, Caki-1, BxPC3 or NCI-H460 tumor cells. When tumors reached approximately 250-300 mm^3, mice were randomized into groups of 10 to 12 animals each and treated by intraperitoneal injection, 2 to 3 times per week, with 1B3, DC101, or 1B3 in combination with DC101. Human IgG and/or USP saline were used as control groups. Tumor sizes and mouse body weight were measured twice a week. Tumor volume was calculated using the formula: π/6×(length×width^2), where length=longest diameter and width=diameter perpendicular to length. The ratio of average tumor volume in the treatment group versus that in the control group (T/C %) was calculated. Statistic analysis was performed by Student's t-test.
The xenograft cell lines were BxPC-3, MIA-PaCa-2, Detroit-562, HCT-8, NCI-H460, NCI-H292, and HCT-116. […] (FIG. 10 and Table 3). […]

WS-1 cells = assay: PDGF-BB-stimulated cell migration, two-chamber technique; assay type: cell-based; settings: antibody 30 μg/ml, PDGF-BB 100 ng/ml, 4 hours
Protocol: (§2) 2C5 inhibits PDGF-BB-stimulated cell migration in a cell-based migration assay. Two-chamber technique was used to determine the inhibitory ability of 2C5 in cell migration with NCI-H460, OVCAR8, WS-1 and U-118 cell lines. Collagen (100 μg/ml) was added to the up chamber (100 μl) and the lower chamber (150 μl) and incubated at 37° C. for 1 hour. After washing the chambers twice with PBS, 100 μl of starved cells (estimated 0.5-10×10^6/ml in serum-free medium) were added to the up chamber and 150 μl of serum-free medium was added to the lower chamber and then incubated at 37° C. for 4 hours. […] In 2C5 wells, 2C5 were added into the up chamber at a final concentration of 30 μg/ml. Non-migrated cells in the up chamber were scraped from the membrane. After washing three times with PBS, migrated cells on the membrane of the lower chamber side were fixed with 4% formalin and stained with Hoechst (4 μg/ml). The results were captured and cells were counted under fluorescence microscopy.

U-118 cells = assay: as above; assay type: cell-based; settings: antibody 30 μg/ml, PDGF-BB 100 ng/ml, 4 hours
Protocol: as §2

[2] = tested on: Akt and p44/42 MAP kinase in Caki-1 cells; assay: PDGF-BB-stimulated downstream signaling (Western blot); assay type: cell-based, human
Protocol: To study the downstream signaling, the cell lysate from the above treatment were resolved by a 4-12% NuPAGE Bis-Tris gel. Phosphorylated Akt and p44/42 mitogen-activated protein kinase (MAPK) were detected using an anti-phospho-Akt and an anti-phospho-p44/p42 MAPK and p44/p42 MAPK, respectively (eBioscience, San Diego, Calif.).
2C5 inhibits PDGF-BB-stimulated receptor phosphorylation and downstream signaling in a cell-based assay. The ability of 2C5 to block PDGFRβ phosphorylation was determined for human Caki-1 tumor cells (FIG. 7) and mouse NIH/3T3 and D122 cells lines (FIG. 8).

Molecule | tumor growth inhibition ([1]; 60 mg/kg i.p. twice weekly) | tumor growth inhibition ([1]; two lower doses (6, 20 mg/kg) i.p. twice weekly) | inhibition of PDGF-BB-stimulated receptor phosphorylation (PDGFRβ in NIH/3T3 cells) | inhibition of PDGF-BB-stimulated receptor phosphorylation (PDGFRβ in D122 cells) | overt toxicity, including changes in body weight and animal behavior (human xenograft tumors) | inhibition of PDGF-BB-stimulated cell migration (WS-1 cells) | inhibition of PDGF-BB-stimulated cell migration (U-118 cells) | inhibition of PDGF-BB-stimulated phosphorylation of Akt and p44/42 MAP kinase [2]
B1 | completely blocked the tumor growth for up to 29 days | No tumor growth inhibition was observed | inhibited PDGF-BB-stimulated receptor phosphorylation in both NIH/3T3 and D122 cells in a dose dependent manner | inhibited PDGF-BB-stimulated receptor phosphorylation in both NIH/3T3 and D122 cells in a dose dependent manner | did not cause any overt toxicity | – | – | –
B2 | – | – | – | – | – | inhibited PDGF-BB-stimulated cell migration completely | inhibited PDGF-BB-stimulated cell migration completely | potently inhibited
